Laboratory results: patent publication US20030148958A1 (PROCTER AND GAMBLE, published 2003)
Ends that are not written are not given here.

T1: corticotropin releasing factor 2 receptor
T1 sequence (Q13324 whole entry, species assumed, looked up): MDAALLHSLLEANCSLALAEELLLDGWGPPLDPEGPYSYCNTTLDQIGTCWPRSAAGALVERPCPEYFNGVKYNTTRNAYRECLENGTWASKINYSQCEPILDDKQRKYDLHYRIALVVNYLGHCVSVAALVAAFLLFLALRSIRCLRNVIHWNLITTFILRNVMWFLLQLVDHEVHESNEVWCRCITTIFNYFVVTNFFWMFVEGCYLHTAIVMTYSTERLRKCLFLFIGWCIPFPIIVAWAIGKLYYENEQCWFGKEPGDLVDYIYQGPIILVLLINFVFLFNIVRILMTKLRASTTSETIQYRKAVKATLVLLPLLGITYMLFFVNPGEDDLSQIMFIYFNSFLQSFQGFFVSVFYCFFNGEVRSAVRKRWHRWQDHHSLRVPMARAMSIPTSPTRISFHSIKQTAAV


Biological target: corticotropin releasing factor 1 receptor
Experiment: cell-based or functional assay
Throughout, for CRF1R Emax: reference of the scale not given here.
Throughout, for CRF2R Emax: reference of the scale not given here.

Row | Binder | CRF1R EC50 [nM] | CRF1R Emax [%]
1 | DNPSLSIDLPLILLRTLLELARTQSQRERAEQNAIIFASV-NH2 [SEQ ID NO 175] | 1000 | 34.8
2 | DNPSLSIDLPTYLLRTLLELARTQSQRERAEQNAIIFASV-NH2 [SEQ ID NO 173] | 1000 | 6.05
3 | DNPSLSIDLPLLLLRTLLELARTQSQRERAEQNAIIFASV-NH2 [SEQ ID NO 174] | 1000 | 29.1
4 | ZGPPISIDVPTYLLRILIEIEKQEKEKQQATTNARILARV (C-terminal amide) [SEQ ID NO 169] | 978 | 26
5 | ZGPPISIDVPTYLLRKMIEIEKQEKEKQQATTNARILARV (C-terminal amide) [SEQ ID NO 170] | 1000 | 9
6 | ZGPPISIDVPFQLLRILIEIEKQEKEKQQATTNARILARV (C-terminal amide) [SEQ ID NO 171] | 206 | 99
7 | DNPSLSIDLPLQLLRTLLELARTQSQRERAEQNAIIFASV-NH2 [SEQ ID NO 176] | 1000 | 26.9

Now from value to binder:

Row | CRF1R EC50 [nM] | CRF1R Emax [%] | Binder
8 | 1000 | 55.7 | DNPSLSIDLPLFLLRTLLELARTQSQRERAEQNAIIFASV-NH2 [SEQ ID NO 178]
9 | 486 | 77.3 | DNPSLSIDLPFFLLRTLLELARTQSQRERAEQNAIIFASV-NH2 [SEQ ID NO 184]
10 | 323 | 100 | ZGPPISIDLPHWLLRKMIEIEKQEKEKQQAANNRLLLDTI (C-terminal amide) [SEQ ID NO 186]
11 | 562 | 99 | ZGPPISIDLPIWLLRKMIEIEKQEKEKQQAANNRLLLDTI (C-terminal amide) [SEQ ID NO 192]
12 | 162 | 96 | ZGPPISIDLPLLLLRKMIEIEKQEKEKQQAANNRLLLDTI (C-terminal amide) [SEQ ID NO 188]
13 | 31.6 | 72 | ZGPPISIDLPWFLLRKMIEIEKQEKEKQQAANNRLLLDTI (C-terminal amide) [SEQ ID NO 187]
14 | 613 | 69.2 | DNPSLSIDLPLYLLRTLLELARTQSQRERAEQNAIIFASV-NH2 [SEQ ID NO 177]

Biological target: T1, corticotropin releasing factor 2 …
Experiment: cell-based or functional assay

Row | Binder | CRF2R EC50 [nM] | CRF2R Emax [%]
15 | DNPSLSIDLPLILLRTLLELARTQSQRERAEQNAIIFASV-NH2 [SEQ ID NO 175] | 5.42 | 92.2
16 | DNPSLSIDLPTYLLRTLLELARTQSQRERAEQNAIIFASV-NH2 [SEQ ID NO 173] | 100 | 65.2
17 | DNPSLSIDLPLLLLRTLLELARTQSQRERAEQNAIIFASV-NH2 [SEQ ID NO 174] | 4.42 | 97.2
18 | ZGPPISIDVPTYLLRILIEIEKQEKEKQQATTNARILARV (C-terminal amide) [SEQ ID NO 169] | 17.8 | 93
19 | ZGPPISIDVPTYLLRKMIEIEKQEKEKQQATTNARILARV (C-terminal amide) [SEQ ID NO 170] | 75 | 83
20 | ZGPPISIDVPFQLLRILIEIEKQEKEKQQATTNARILARV (C-terminal amide) [SEQ ID NO 171] | 17.6 | 100
21 | DNPSLSIDLPLQLLRTLLELARTQSQRERAEQNAIIFASV-NH2 [SEQ ID NO 176] | 12.6 | 90.2

Continued, values first:

Row | CRF2R EC50 [nM] | CRF2R Emax [%] | Binder
22 | 5.17 | 96.5 | DNPSLSIDLPLFLLRTLLELARTQSQRERAEQNAIIFASV-NH2 [SEQ ID NO 178]
23 | 3.72 | 96.5 | DNPSLSIDLPFFLLRTLLELARTQSQRERAEQNAIIFASV-NH2 [SEQ ID NO 184]
24 | 25.1 | 100 | ZGPPISIDLPHWLLRKMIEIEKQEKEKQQAANNRLLLDTI (C-terminal amide) [SEQ ID NO 186]
25 | 66.8 | 97 | ZGPPISIDLPIWLLRKMIEIEKQEKEKQQAANNRLLLDTI (C-terminal amide) [SEQ ID NO 192]
26 | 14.6 | 100 | ZGPPISIDLPLLLLRKMIEIEKQEKEKQQAANNRLLLDTI (C-terminal amide) [SEQ ID NO 188]
27 | 10.3 | 100 | ZGPPISIDLPWFLLRKMIEIEKQEKEKQQAANNRLLLDTI (C-terminal amide) [SEQ ID NO 187]
28 | 5.63 | 97.7 | DNPSLSIDLPLYLLRTLLELARTQSQRERAEQNAIIFASV-NH2 [SEQ ID NO 177]
